{"source": "patent US8071348B2", "about": "“Protein tyrosine phosphatase substrate-trapping double mutant and uses thereof” (Albert Einstein College of Medicine of Yeshiva University, priority 2002, dated 2011)", "key": {"[1]": {"biological_target": "Ac-Asp-Ala-Asp-Glu-F2Pmp-Leu-NH2", "assay": "Isothermal titration calorimetry, binding of PTP1B and mutants to F2Pmp peptide", "settings": "ITC, 25° C. and pH 7.0; data from this study", "description": "(§1) FIG. 3 portrays calorimetric isothermal titration for the reaction of peptide Ac-Asp-Ala-Asp-Glu-F2Pmp-Leu-NH2 with PTP1B/D181A/Q262A. The upper graph depicts raw data for thirty 8-μl injections of the peptide (0.5 mM stock) into the isothermal cell containing 32 μM PTP1B/D181A/Q262A, at 4-min intervals and 25° C. Both the protein and the peptide were in 50 mM 3,3-dimethylglutarate buffer (I=0.15 M, pH 7.0) containing 1 mM DTT. The lower graph depicts an integration curve showing experimental points that were obtained by integration of the above peaks as plotted against the molar ratio of the peptide to PTP1B/D181A/Q262A within the reaction cell. The solid line corresponds to the best fit to the data according to the nonlinear, least-squares regression algorithm, ORIGIN (29).\n(§2) All isothermal titration calorimetry experiments were performed using an MCS Isothermal Titration Calorimetry System from Microcal Inc. (Northampton, Mass.). […] The ionic strength of the buffer was adjusted to 0.15 M by addition of NaCl. Protein concentration in the calorimeter cell was 27-85 μM, while the ligand concentration in the syringe was 0.37-1 mM.\n(§3) The PTP1B samples used in the isothermal titration calorimetry experiments were dialyzed completely against buffer. High-concentration stock solutions were prepared for ligands with distilled water, and adjusted to pH 7.0. Stock was diluted at least 26-fold with 50 mM 3,3-dimethylglutarate buffer before titration. Protein dilution during titration was determined by titration of buffer into the protein solution. […] The heat of ligand dilution was corrected by subtracting the average heat of injection after saturation.\n(§4) The binding data were analyzed using ORIGIN software (29). Binding constant, K, and enthalpy change, ΔH, were used to calculate free energy change, ΔG, and entropy change, ΔS, according to equation [1]: −RTLnK=ΔG=ΔH−TΔS [1] where R is the gas constant and T is the absolute temperature."}, "[2]": {"biological_target": "T1, Ac-Asp-Ala-Asp-Glu-F2Pmp-Leu-NH2 (Homo sapiens, UniProt P18031, D181A/Q262A)", "T1 construct": "The catalytic domain of PTP1B (residues 1 to 321) was used for in vitro study; made in house; host or cells: E. coli (pT7-7 plasmids)", "T1 sequence (P18031 1-321 D181A/Q262A)": "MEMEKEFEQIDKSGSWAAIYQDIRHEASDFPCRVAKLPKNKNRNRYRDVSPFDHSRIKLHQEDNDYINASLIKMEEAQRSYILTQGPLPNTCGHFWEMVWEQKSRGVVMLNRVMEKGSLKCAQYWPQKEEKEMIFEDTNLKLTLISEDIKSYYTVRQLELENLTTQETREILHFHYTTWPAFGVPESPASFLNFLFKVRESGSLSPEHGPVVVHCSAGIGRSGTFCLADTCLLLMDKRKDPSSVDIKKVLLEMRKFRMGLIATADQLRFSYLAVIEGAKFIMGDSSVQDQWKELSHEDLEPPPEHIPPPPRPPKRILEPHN", "assay": "Isothermal titration calorimetry, binding of PTP1B and mutants to F2Pmp peptide", "settings": "ITC, pH 7.0, ionic strength 0.15 M, 25° C.; read-out: dissociation constant, Kd", "description": "as §1, §2, §3, §4"}, "[3]": {"biological_target": "T2, Ac-Asp-Ala-Asp-Glu-F2Pmp-Leu-NH2", "T2 construct": "Synthetic hexapeptide printed in three-letter code; also called F2Pmp-containing peptide; non-hydrolyzable substrate analog", "T2 peptide": "Ac-DADE[F2Pmp]L-NH2", "assay": "ITC, 25 C, pH 7.0", "description": "(§5) All isothermal titration calorimetry experiments were performed using an MCS Isothermal Titration Calorimetry System from Microcal Inc. (Northampton, Mass.). Experiments at pH 7.0 were conducted at 25° C., in 50 mM 3,3-dimethylglutarate buffer containing 1 mM DTT. The ionic strength of the buffer was adjusted to 0.15 M by addition of NaCl. Protein concentration in the calorimeter cell was 27-85 µM, while the ligand concentration in the syringe was 0.37-1 mM.\nas §3, with “Stock was diluted at least 26-fold with 50 mM 3,3-dimethylglutarate buffer before titration.” left out\n(§6) A typical titration curve and binding isotherm for the binding of D181A/Q262A to Ac-Asp-Ala-Asp-Glu-F_2Pmp-Leu-NH_2 is shown in FIG. 3. From curve-fitting of the binding isotherms, the stoichiometry for the binding of the peptide to D181A/Q262A was determined to be 1:1."}, "[4]": {"biological_target": "T2, Ac-Asp-Ala-Asp-Glu-F2Pmp-Leu-NH2", "assay": "ITC", "description": "as §5, §6"}, "[5]": {"assay": "Kinetic constants for PTP1B-catalyzed hydrolysis of pNPP", "format": "biochemical", "settings": "pNPP as substrate", "from_the_text": "The catalytic domain of PTP1B (residues 1 to 321) was used for in vitro study. PTP1B mutants, C215S, D181A, and Q262A, were described previously (9, 25, 26). PTP1B double mutants, D181A/C215S and C215S/Q262A, were generated by PCR reactions, according to the standard procedure of the Quick-Change™ site-directed mutagenesis kit (Stratagene), using pT7-7/PTP1B/C215S as a template. PTP1B double mutants, D181A/C215E and D181A/Q262A, were generated by similar PCR procedures, using pT7-7/PTP1B/D181A as a template. The recombinant wild-type and mutant PTP1Bs were expressed in E. coli, and purified to homogeneity as described (25, 27). Protein concentration was determined from absorbance measurement at 280 nm, using an absorbance coefficient of 1.24 for 1 mg/ml PTP1B.\nPTP activity was assayed at 25° C. and pH 7.0, in a reaction mixture (0.2 ml) containing pNPP concentrations ranging from 0.2 to 5 Km. The following buffered solution was used for activity measurements: pH 7.0, 50 mM 3,3-dimethylglutarate, 1 mM EDTA; the ionic strength was 0.15 M, as adjusted by addition of NaCl. Initial rate measurements for the enzyme-catalyzed hydrolysis of pNPP were conducted as previously described (26). Michaelis-Menten kinetic parameters were determined from a direct fit of the data to the Michaelis-Menten equation, using the nonlinear regression program, KINETASYST (Intellikinetics, State College, Pa.)."}}, "note": "[ ]: non-standard residue; d: D form. F2Pmp = N[C@@H](Cc1ccc(C(F)(F)P(=O)(O)O)cc1)C(=O)O", "data": [{"molecule": "PTP1B/D181A/Q262A, catalytic domain (residues 1 to 321) (enzyme, human, UniProt P18031 1-321, looked up, range 1-321; Used in vitro (ITC, kinetics); also called PTP1B substrate-trapping double mutant) MEMEKEFEQIDKSGSWAAIYQDIRHEASDFPCRVAKLPKNKNRNRYRDVSPFDHSRIKLHQEDNDYINASLIKMEEAQRSYILTQGPLPNTCGHFWEMVWEQKSRGVVMLNRVMEKGSLKCAQYWPQKEEKEMIFEDTNLKLTLISEDIKSYYTVRQLELENLTTQETREILHFHYTTWPAFGVPESPASFLNFLFKVRESGSLSPEHGPVVVHCSAGIGRSGTFCLADTCLLLMDKRKDPSSVDIKKVLLEMRKFRMGLIATADQLRFSYLAVIEGAKFIMGDSSVQDQWKELSHEDLEPPPEHIPPPPRPPKRILEPHN", "values": [{"measurement": "Kd", "setting": "[1]", "value": "6.8 ± 2.3", "unit": "nM"}, {"measurement": "Kd", "setting": "[2]", "value": 6.8, "unit": "nM"}, {"measurement": "TΔS", "setting": "[3]", "value": 6.6, "unit": "kcal/mol"}, {"measurement": "ΔG", "setting": "[3]", "value": -11.1, "unit": "kcal/mol"}, {"measurement": "ΔH", "setting": "[3]", "value": -4.5, "unit": "kcal/mol"}, {"measurement": "fold higher substrate-binding affinity than PTP1B/C215S", "setting": "[4]", "value": 28, "unit": "fold"}, {"measurement": "fold decrease in Km relative to D181A", "setting": "[5]", "value": 33, "unit": "fold"}, {"measurement": "fold decrease in kcat relative to D181A", "setting": "[5]", "value": 11, "unit": "fold"}, {"measurement": "Km", "setting": "[5]; 25° C. and pH 7.0", "value": "2.4 ± 0.5", "unit": "µM"}, {"measurement": "kcat", "setting": "[5]; 25° C. and pH 7.0", "value": "(2.8 ± 0.1) × 10^−3 s^−1"}]}]}
